Assay results: US20240384288A1, “COUMARIN TRANSPORTERS AND USES THEREOF” (BASF PLANT SCIENCE COMPANY GMBH, priority 2021, published 2024)

Test system: leaves of N. benthamiana plants
Test: Transient expression of coumarin transporter in N. benthamiana leaves, coumarins in leaf wash water / leaves by HPLC
Type: in vivo
Protocol: Droplets of double-distilled water (30 μl) were evenly distributed on the surface of detached leaves placed in a petri dish (approx. 40 droplets on sunflower, 20 droplets on N. benthamiana). Samples were kept at RT for 24 h at high humidity. Subsequently, droplets were carefully collected without touching the leaf surface, filtered and used for HPLC analysis or germination assays.
For transient in planta overexpression assays cDNA sequences of GOIs were cloned in the plant overexpression vector pB7WG2D13 using the Gateway® cloning technology. Similar cloning steps are performed to generate transient in-planta overexpression constructs for any of the other coumarin transporter proteins A0A251U1Q8_HELAN, A0A5N6LHL1_9ASTR, A0A 1I9L1U9_ARTAN, A0A2J6KQ56_LACSA and A0A2G2ZJV1_CAPAN with A0A1S3XDP1_TOBAC as control. […]
Coumarin methanol extracts were centrifuged for 10 min at 21,000 rcf and 70 μl of the supernatant were separated via HPLC on a reverse phase C18 column (KROMAPLUS 100-5-C18 5.0, Prontosil). ddH2O and acetonitrile, both containing 1.5% (v/v) acetic acid, were used as solvents. […] Coumarin fluorescence was detected at λ=335 nm excitation and λ=460 nm emission (FP 920 Intelligent Fluorescence Detector, Jasco) or at λ=342 nm (UV absorbance). […] For quantification, a standard curve of commercial standards with known concentrations was measured.

B1: AtPDR9: already published Arabidopsis thaliana coumarin transporter, used as control (protein, UniProt Q9LFH0 1-1450, looked up)
ABC transporter G family …: MAHMVGADDIESLRVELAEIGRSIRSSFRRHTSSFRSSSSIYEVENDGDVNDHDAEYALQWAEIERLPTVKRMRSTLLDDGDESMTEKGRRVVDVTKLGAVERHLMIEKLIKHIENDNLKLLKKIRRRIDRVGMELPTIEVRYESLKVVAECEVVEGKALPTLWNTAKRVLSELVKLTGAKTHEAKINIINDVNGIIKPGRLTLLLGPPSCGKTTLLKALSGNLENNLKCSGEISYNGHRLDEFVPQKTSAYISQYDLHIAEMTVRETVDFSARCQGVGSRTDIMMEVSKREKEKGIIPDTEVDAYMKAISVEGLQRSLQTDYILKILGLDICAEILIGDVMRRGISGGQKKRLTTAEMIVGPTKALFMDEITNGLDSSTAFQIVKSLQQFAHISSATVLVSLLQPAPESYDLFDDIMLMAKGRIVYHGPRGEVLNFFEDCGFRCPERKGVADFLQEVISKKDQAQYWWHEDLPYSFVSVEMLSKKFKDLSIGKKIEDTLSKPYDRSKSHKDALSFSVYSLPNWELFIACISREYLLMKRNYFVYIFKTAQLVMAAFITMTVFIRTRMGIDIIHGNSYMSALFFALIILLVDGFPELSMTAQRLAVFYKQKQLCFYPAWAYAIPATVLKVPLSFFESLVWTCLSYYVIGYTPEASRFFKQFILLFAVHFTSISMFRCLAAIFQTVVASITAGSFGILFTFVFAGFVIPPPSMPAWLKWGFWANPLSYGEIGLSVNEFLAPRWNQMQPNNFTLGRTILQTRGMDYNGYMYWVSLCALLGFTVLFNIIFTLALTFLKSPTSSRAMISQDKLSELQGTEKSTEDSSVRKKTTDSPVKTEEEDKMVLPFKPLTVTFQDLNYFVDMPVEMRDQGYDQKKLQLLSDITGAFRPGILTALMGVSGAGKTTLLDVLAGRKTSGYIEGDIRISGFPKVQETFARVSGYCEQTDIHSPNITVEESVIYSAWLRLAPEIDATTKTKFVKQVLETIELDEIKDSLVGVTGVSGLSTEQRKRLTIAVELVANPSIIFMDEPTTGLDARAAAIVMRAVKNVADTGRTIVCTIHQPSIDIFEAFDELVLLKRGGRMIYTGPLGQHSRHIIEYFESVPEIPKIKDNHNPATWMLDVSSQSVEIELGVDFAKIYHDSALYKRNSELVKQLSQPDSGSSDIQFKRTFAQSWWGQFKSILWKMNLSYWRSPSYNLMRMMHTLVSSLIFGALFWKQGQNLDTQQSMFTVFGAIYGLVLFLGINNCASALQYFETERNVMYRERFAGMYSATAYALGQVVTEIPYIFIQAAEFVIVTYPMIGFYPSAYKVFWSLYSMFCSLLTFNYLAMFLVSITPNFMVAAILQSLFYVGFNLFSGFLIPQTQVPGWWIWLYYLTPTSWTLNGFISSQYGDIHEEINVFGQSTTVARFLKDYFGFHHDLLAVTAVVQIAFPIALASMFAFFVGKLNFQRR
Scopoletin content in leaf wash water (LWW) (transporter transiently coexpressed with F6'H1, versus biosynthesis gene without transporter): no increased coumarin secretion | Scoparone content in leaf wash water (LWW) (transporter transiently coexpressed with F6'H1 plus OMT3, versus biosynthesis genes without transporter): no increased coumarin secretion
